# Results: patent publication US8258099B2, “Pin1-modulating compounds and methods of use thereof” (Max-Planck-Gesellschaft zur Foerderung der Wissenschaften …, priority 2004, dated 2012)
# Square brackets hold non-standard residues; d marks the D form. Peptide text beside a SMILES is read from it. * marks the point of attachment. Biotin = O=C1N[C@H]2[C@H](CS[C@H]2CCCCC(=O)*)N1; Phe(4-tBu) = CC(C)(C)c1ccc(C[C@H](N)C(=O)O)cc1; Bip = N[C@@H](Cc1ccc(-c2ccccc2)cc1)C(=O)O; pT = C[C@@H](OP(=O)(O)O)[C@H](N)C(=O)O; 2Nal = N[C@@H](Cc1ccc2ccccc2c1)C(=O)O; Bta = N[C@@H](Cc1csc2ccccc12)C(=O)O; Tic = O=C(O)[C@@H]1Cc2ccccc2CN1; 2Thi = N[C@@H](Cc1cccs1)C(=O)O; Cha = N[C@@H](CC1CCCCC1)C(=O)O; Tle = CC(C)(C)[C@H](N)C(=O)O; NMeA = CN[C@@H](C)C(=O)O
# B1: peptide 1 (peptide)
# peptide: Ac-K(Biotin)AA[Phe(4-tBu)][pT]P[2Nal]Q-NH2
# SMILES: CC(=O)N[C@@H](CCCCNC(=O)CCCC[C@@H]1SC[C@@H]2NC(=O)N[C@@H]21)C(=O)N[C@@H](C)C(=O)N[C@@H](C)C(=O)N[C@@H](Cc1ccc(C(C)(C)C)cc1)C(=O)N[C@H](C(=O)N1CCC[C@H]1C(=O)N[C@@H](Cc1ccc2ccccc2c1)C(=O)N[C@@H](CCC(N)=O)C(N)=O)[C@@H](C)OP(=O)(O)O
# B2: peptide 10 (peptide)
# peptide: Ac-K(Biotin)AA[2Thi][pT][NMeA][2Nal]Q-NH2
# SMILES: CC(=O)N[C@@H](CCCCNC(=O)CCCC[C@@H]1SC[C@@H]2NC(=O)N[C@@H]21)C(=O)N[C@@H](C)C(=O)N[C@@H](C)C(=O)N[C@@H](Cc1cccs1)C(=O)N[C@H](C(=O)N(C)[C@@H](C)C(=O)N[C@@H](Cc1ccc2ccccc2c1)C(=O)N[C@@H](CCC(N)=O)C(N)=O)[C@@H](C)OP(=O)(O)O
# B3: peptide 12 (peptide)
# peptide: Ac-K(Biotin)AAF[pT][NMeA][Bta]Q-NH2
# SMILES: CC(=O)N[C@@H](CCCCNC(=O)CCCC[C@@H]1SC[C@@H]2NC(=O)N[C@@H]21)C(=O)N[C@@H](C)C(=O)N[C@@H](C)C(=O)N[C@@H](Cc1ccccc1)C(=O)N[C@H](C(=O)N(C)[C@@H](C)C(=O)N[C@@H](Cc1csc2ccccc12)C(=O)N[C@@H](CCC(N)=O)C(N)=O)[C@@H](C)OP(=O)(O)O
# B4: peptide 13 (peptide)
# peptide: Ac-K(Biotin)AA[Phe(4-tBu)][pT][Tic][Bta]Q-NH2
# SMILES: CC(=O)N[C@@H](CCCCNC(=O)CCCC[C@@H]1SC[C@@H]2NC(=O)N[C@@H]21)C(=O)N[C@@H](C)C(=O)N[C@@H](C)C(=O)N[C@@H](Cc1ccc(C(C)(C)C)cc1)C(=O)N[C@H](C(=O)N1Cc2ccccc2C[C@H]1C(=O)N[C@@H](Cc1csc2ccccc12)C(=O)N[C@@H](CCC(N)=O)C(N)=O)[C@@H](C)OP(=O)(O)O
# B5: peptide 14 (peptide)
# peptide: Ac-K(Biotin)AA[Cha][pT][Tic][2Nal]Q-NH2
# SMILES: CC(=O)N[C@@H](CCCCNC(=O)CCCC[C@@H]1SC[C@@H]2NC(=O)N[C@@H]21)C(=O)N[C@@H](C)C(=O)N[C@@H](C)C(=O)N[C@@H](CC1CCCCC1)C(=O)N[C@H](C(=O)N1Cc2ccccc2C[C@H]1C(=O)N[C@@H](Cc1ccc2ccccc2c1)C(=O)N[C@@H](CCC(N)=O)C(N)=O)[C@@H](C)OP(=O)(O)O
# Experiments:
# [1] = target: T1, hPin1 (Homo sapiens, UniProt Q13526); experiment: Protease free PPIase assay, hPin1; type: biochemical; details: for IC50: blockade of PPIase activity of full-length hPin1, protease free assay, 10° C., read-out: IC50
# T1 construct: The protease free assay ensures reliable measurement of IC50 values for the full-length hPin1
# T1 sequence (Q13526 whole entry): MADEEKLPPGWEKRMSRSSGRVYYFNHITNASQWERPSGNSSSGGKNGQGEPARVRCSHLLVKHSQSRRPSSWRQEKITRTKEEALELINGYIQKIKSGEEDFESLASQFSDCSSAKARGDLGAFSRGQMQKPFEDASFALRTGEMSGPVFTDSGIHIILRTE
# Method: Protein concentrations were determined using the extinction coefficient ε280=21030 M^−1 cm^−1 for hPin1, ε280=6979 M^−1 cm^−1 for the hPin1 PPIase domain, ε280=21030 M^−1 cm^−1 for XlPin1, ε280=8250 M^−1 cm^−1 for hPar14 and ε280=8250 M^−1 cm^−1 for hCyp18. Extinction coefficients were calculated using the program ProtParam Tool at ExPASy (SIB, Switzerland). All measurements were done at 10° C. in 35 mM Hepes buffer (pH 7.8).
# The determination of the kinetic constants of the cis/trans isomerization within the protease-free system was performed using fluorescence based measurements (Garcia-Echeverria et al., 1993, Zhang et al., 2002) on a Hitachi F-3010 fluorescence spectrophotometer with H-Abz-Ala-Glu-Pro-Phe-NH-Np (SEQ ID NO: 2) as substrate. The substrate stock solution was 12 mM in anhydrous trifluoroethanol/0.55 M LiCl. Measurements were initiated by addition of the substrate (final concentration 10 μM) to a pre-incubated (15 min) mixture of 8.8 nM hPin1 or 7.1 nM XlPin1 and respective inhibitory peptide of desired concentrations. The excitation wavelength was 320 nm (spectral bandwidth 3 nm) and emission was detected at 420 nm (spectral bandwidth 10 nm).
# Data analysis was performed by single-exponential nonlinear regression using the SigmaPlot Scientific Graphing System Version 5.00 (Jandel Corp.). The apparent first order rate constant kobs was computed by nonlinear regression of the progress curve obtained for the respective measurement. The rate constant k0 was determined in the absence of Pin1. The first order rate constants kenz was calculated from the equation kenz=kobs−k0. IC50 and Ki values were determined by fitting the first order rate constants kenz against the concentration of the inhibitory peptide by nonlinear regression according to Schutkowski et al., 1995 or a model for tight binding inhibitors (Morrison, 1969).
# The protease free assay ensures reliable measurement of IC50 values for the full-length hPin1.
# [2] = target: full-length hPin1 (human, UniProt Q13526 1-163); experiment: cell-based or functional assay
# Chain of full-length hPin1 (Q13526 whole entry): as above
Molecule,IC50 [1],"fold decrease of inhibition, prolyl residue at Yaa versus peptide 15 ([1]; compared with peptide 15)","IC50(µM), blockade of the PPIase activity of hPin1, protease free PPIase assay [2]"
CC(=O)N[C@@H](CCCCNC(=O)CCCC[C@@H]1SC[C@@H]2NC(=O)N[C@@H]21)C(=O)N[C@@H](C)C(=O)N[C@@H](C)C(=O)N[C@@H](Cc1csc2ccccc12)C(=O)N[C@H](C(=O)N1CCC[C@H]1C(=O)N[C@@H](Cc1ccc2ccccc2c1)C(=O)N[C@@H](CCC(N)=O)C(N)=O)[C@@H](C)OP(=O)(O)O [Peptide 4] (Ac-K(Biotin)AA[Bta][pT]P[2Nal]Q-NH2),20 µM,100 fold,
"Ac-Lys(Nε-biotinoyl)-Ala-Ala-Xaa-Thr(PO3H2)-Yaa-Zaa-Gln-NH2 with Xaa Bth, Yaa Pro, Zaa Cha [Peptide 3]",> 50 µM,,
CC(=O)N[C@@H](CCCCNC(=O)CCCC[C@@H]1SC[C@@H]2NC(=O)N[C@@H]21)C(=O)N[C@@H](C)C(=O)N[C@@H](C)C(=O)N[C@@H](Cc1cccs1)C(=O)N[C@H](C(=O)N(C)[C@@H](C)C(=O)N[C@@H](Cc1ccc2ccccc2c1)C(=O)N[C@@H](CCC(N)=O)C(N)=O)[C@@H](C)OP(=O)(O)O [Peptide 10] (Ac-K(Biotin)AA[2Thi][pT][NMeA][2Nal]Q-NH2),15 µM,,
CC(=O)N[C@@H](CCCCNC(=O)CCCC[C@@H]1SC[C@@H]2NC(=O)N[C@@H]21)C(=O)N[C@@H](C)C(=O)N[C@@H](C)C(=O)N[C@@H](Cc1ccc2ccccc2c1)C(=O)N[C@H](C(=O)N1CCC[C@H]1C(=O)N[C@H](C(=O)N[C@@H](CCC(N)=O)C(N)=O)C(C)(C)C)[C@@H](C)OP(=O)(O)O [Peptide 7] (Ac-K(Biotin)AA[2Nal][pT]P[Tle]Q-NH2),> 50 µM,,
CC(=O)N[C@@H](CCCCNC(=O)CCCC[C@@H]1SC[C@@H]2NC(=O)N[C@@H]21)C(=O)N[C@@H](C)C(=O)N[C@@H](C)C(=O)N[C@@H](Cc1ccc2ccccc2c1)C(=O)N[C@H](C(=O)N1CCC[C@H]1C(=O)N[C@@H](CC1CCCCC1)C(=O)N[C@@H](CCC(N)=O)C(N)=O)[C@@H](C)OP(=O)(O)O [Peptide 8] (Ac-K(Biotin)AA[2Nal][pT]P[Cha]Q-NH2),> 50 µM,,
CC(=O)N[C@@H](CCCCNC(=O)CCCC[C@@H]1SC[C@@H]2NC(=O)N[C@@H]21)C(=O)N[C@@H](C)C(=O)N[C@@H](C)C(=O)N[C@@H](Cc1ccc(-c2ccccc2)cc1)C(=O)N[C@H](C(=O)N1CCC[C@H]1C(=O)N[C@@H](Cc1csc2ccccc12)C(=O)N[C@@H](CCC(N)=O)C(N)=O)[C@@H](C)OP(=O)(O)O [Peptide 5] (Ac-K(Biotin)AA[Bip][pT]P[Bta]Q-NH2),15 µM,,
CC(=O)N[C@@H](CCCCNC(=O)CCCC[C@@H]1SC[C@@H]2NC(=O)N[C@@H]21)C(=O)N[C@@H](C)C(=O)N[C@@H](C)C(=O)N[C@@H](Cc1ccccc1)C(=O)N[C@H](C(=O)N(C)[C@@H](C)C(=O)N[C@@H](Cc1csc2ccccc12)C(=O)N[C@@H](CCC(N)=O)C(N)=O)[C@@H](C)OP(=O)(O)O [Peptide 12] (Ac-K(Biotin)AAF[pT][NMeA][Bta]Q-NH2),20 µM,,
B1,,,30 µM
B2,,,15 µM
Ac-K(Biotin)AA[Cha][pT][NMeA][2Nal]Q-NH2 [peptide 11],,,7 µM
B3,,,20 µM
B4,,,8 µM
B5,,,25 µM
Ac-K(Biotin)AA[2Thi][pT]P[Bip]Q-NH2 [peptide 2],,,22 µM
Ac-K(Biotin)AA[Bta][pT]P[Cha]Q-NH2 [peptide 3],,,> 50 µM
Ac-K(Biotin)AA[Bip][pT]P[Bta]Q-NH2 [peptide 5],,,15 µM
Ac-K(Biotin)AA[Bip][pT]P[2Nal]Q-NH2 [peptide 6],,,18 µM
Ac-K(Biotin)AA[2Nal][pT]P[Tle]Q-NH2 [peptide 7],,,> 50 µM
Ac-K(Biotin)AA[2Nal][pT]P[Cha]Q-NH2 [peptide 8],,,> 50 µM
Ac-K(Biotin)AA[Phe(4-tBu)][pT][NMeA][2Nal]Q-NH2 [peptide 9],,,10 µM
